Laboratory results from PMC3814370, “Functional assignment of KEOPS/EKC complex subunits in the biosynthesis of the universal t^6A tRNA modification” (Nucleic Acids Research, 2013).

Assays:
[1] = target: Pcc1–Kae1 binary complex from Pyrococcus abyssi (Pyrococcus abyssi) (UniProt Q9V1Z9)
[2] = system: Kae1-Bud32 (Pyrococcus abyssi); assay: EMSA; conditions: apparent Kd; retarded bands from 50 nM; EMSA: 10 nM 32P-tRNA, 20 µl binding buffer BB (composition not in material), 15 min at 4 C (Figure 7 legend: room temperature), 10% native gel in 1X TGE at 4 C

Sequence of Pcc1–Kae1 binary complex from Pyrococcus abyssi (Pyrococcus abyssi) (Q9V1Z9 whole entry, chain 1 of 2): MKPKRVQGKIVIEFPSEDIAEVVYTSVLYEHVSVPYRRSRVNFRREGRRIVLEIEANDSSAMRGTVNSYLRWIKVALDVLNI
Sequence of Pcc1–Kae1 binary complex from Pyrococcus abyssi (Pyrococcus abyssi) (Q9UXT7 whole entry, chain 2 of 2, further chain): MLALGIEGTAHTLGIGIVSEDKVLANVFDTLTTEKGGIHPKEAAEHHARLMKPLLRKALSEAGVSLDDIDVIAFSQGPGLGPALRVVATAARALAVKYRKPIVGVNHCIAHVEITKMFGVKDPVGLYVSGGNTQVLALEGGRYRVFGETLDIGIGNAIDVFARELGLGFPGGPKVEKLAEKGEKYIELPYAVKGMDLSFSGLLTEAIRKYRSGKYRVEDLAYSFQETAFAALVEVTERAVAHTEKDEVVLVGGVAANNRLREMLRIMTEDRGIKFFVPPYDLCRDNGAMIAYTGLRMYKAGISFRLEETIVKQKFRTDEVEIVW

Work on “Kae1–Bud32 binary complex from Pyrococcus abyssi (from UniProt Q9UXT7 1-324; Q9UYB9 1-220)” yielded a t^6A synthesis (14C-L-threonine incorporated into tRNA) by a mix of the two binary complexes, relative to PaKEOPS [1] of 30%.

For “Kae1–Bud32–Cgi121 ternary complex from Pyrococcus abyssi (from UniProt Q9UXT7 1-324; Q9UYB9 1-220; Q9UZ62 1-171)”, the t^6A synthesis (14C-L-threonine incorporated into tRNA) after adding Pcc1–Kae1 to the ternary complex, relative to PaKEOPS [1] was 36%.

Work on substrate tRNA (probably Ec_tRNALys) yielded a Kd [2] of 2 µM.
